Assay results published in patent US20030068675, “Position dependent recognition of GNN nucleotide triplets by zinc fingers” (published 2003).
Positions count from the first letter of the chain named.

Tests used:
Assay in all cases: EMSA
Conditions in all cases: tags: MBP fusion
[1] = target: T1, ZFP SBS#1353 (synthetic, UniProt P08047)
T1 chain: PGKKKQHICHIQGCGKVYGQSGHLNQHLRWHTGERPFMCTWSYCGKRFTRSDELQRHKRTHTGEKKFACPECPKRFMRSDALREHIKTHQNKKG
Method in brief: (§1)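 Purified ZFP was titrated against labeled double-stranded target (1 nM or lower, at least 10-fold below expected Kd) carrying the natural binding site with flanks. Binding buffer was 10 mM Tris pH 7.5, 100 mM KCl, 1 mM MgCl2, 0.1 mM ZnCl2, 5 mM DTT, 10% glycerol, 0.02% BSA, with equilibration for at least 45 min. Bound and free target were separated on a 10% polyacrylamide gel.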

[2] = target: T2, ZFP SBS#1354 (synthetic, UniProt P08047)
T2 chain: T1 chain with Q20K, S21N, G22W, H23K, N25Q, Q26A
Method in brief: as §1

[3] = target: T3, ZFP SBS#1335 (synthetic)
T3 chain: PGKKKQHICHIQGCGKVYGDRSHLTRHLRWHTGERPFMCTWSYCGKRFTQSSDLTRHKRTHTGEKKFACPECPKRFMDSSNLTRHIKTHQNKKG
Method in brief: as §1

[4] = target: T4, ZFP SBS#1351 (synthetic)
T4 chain: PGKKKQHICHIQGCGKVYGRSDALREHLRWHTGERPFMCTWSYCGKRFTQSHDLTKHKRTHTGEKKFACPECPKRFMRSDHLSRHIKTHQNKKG
Method in brief: as §1

[5] = target: T5, ZFP SBS#1348 (synthetic)
T5 chain: T4 chain with R25T, E26A, S51A, H52A, D53T, K56T
Method in brief: as §1

[6] = target: T6, ZFP SBS#1318 (synthetic, UniProt P08047)
T6 chain: T1 chain with Q20T, G22S, N25A, Q26S, E53A, Q55A, R83A, E84Q
Method in brief: as §1

[7] = target: T7, ZFP SBS#1319 (synthetic)
T7 chain: T1 chain with Q20M, G22H, N25T, Q26T, E53A, Q55A, R83A, E84Q
Method in brief: as §1

[8] = target: T8, ZFP SBS#1344 (synthetic)
T8 chain: T3 chain with H23N, Q50D, S51R, D53H, T55A, D78R, S80D, N81T, T83R, R84E
Method in brief: as §1

[9] = target: T9, ZFP SBS#1357 (synthetic)
T9 chain: T3 chain with D20Q, R21S, H23S, T25V, Q50R, S52D, D53A, R56T, S79R
Method in brief: as §1

[10] = target: T10, ZFP SBS#1358 (synthetic)
T10 chain: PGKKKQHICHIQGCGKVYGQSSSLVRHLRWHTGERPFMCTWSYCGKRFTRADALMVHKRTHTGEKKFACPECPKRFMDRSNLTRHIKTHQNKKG
Method in brief: as §1

[11] = target: T11, ZFP SBS#1321 (synthetic)
T11 chain: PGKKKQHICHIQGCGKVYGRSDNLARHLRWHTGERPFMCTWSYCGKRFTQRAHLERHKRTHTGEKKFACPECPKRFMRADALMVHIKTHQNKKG
Method in brief: as §1

[12] = target: T12, ZFP SBS#1320 (synthetic)
T12 chain: T11 chain with A79S, M83T, V84T
Method in brief: as §1

[13] = target: T13, ZFP SBS#1334 (synthetic)
T13 chain: T4 chain with Q50R, H52S, K56R, H81D, S83R, R84E
Method in brief: as §1

[14] = target: ZFP SBS#1337 (synthetic)
ZFP SBS#1337 (synthetic), sequence (chain, as listed by the source): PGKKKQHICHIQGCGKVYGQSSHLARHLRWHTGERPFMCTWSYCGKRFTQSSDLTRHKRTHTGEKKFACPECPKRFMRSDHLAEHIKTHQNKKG
Method in brief: as §1

[15] = target: T14, ZFP SBS#1336 (synthetic)
T14 chain: T1 chain with N25A, Q26R, R50Q, D52S, E53D, Q55T, A81H, R83A
Method in brief: as §1

[16] = target: T15, ZFP SBS#1342 (synthetic)
T15 chain: T4 chain with A23N, Q50R, H52S, K56R, H81N, S83T, R84E
Method in brief: as §1

[17] = target: T16, ZFP SBS#1343 (synthetic)
T16 chain: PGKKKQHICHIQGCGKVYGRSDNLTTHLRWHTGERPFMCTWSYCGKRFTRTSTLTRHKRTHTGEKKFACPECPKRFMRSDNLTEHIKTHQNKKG
Method in brief: as §1

[18] = target: ZFP SBS#1330 (synthetic)
ZFP SBS#1330 (synthetic), sequence (chain, as listed by the source): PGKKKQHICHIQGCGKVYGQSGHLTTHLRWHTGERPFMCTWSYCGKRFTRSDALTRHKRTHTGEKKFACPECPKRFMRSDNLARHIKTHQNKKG
Method in brief: as §1

[19] = target: ZFP SBS#1346 (synthetic)
Method in brief: as §1

[20] = target: ZFP SBS#1356 (synthetic)
ZFP SBS#1356 (synthetic), sequence (chain, as listed by the source): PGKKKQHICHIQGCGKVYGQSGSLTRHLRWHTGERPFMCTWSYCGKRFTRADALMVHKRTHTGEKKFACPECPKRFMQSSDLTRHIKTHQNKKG
Method in brief: as §1

[21] = target: ZFP SBS#1355 (synthetic)
ZFP SBS#1355 (synthetic), sequence (chain, as listed by the source): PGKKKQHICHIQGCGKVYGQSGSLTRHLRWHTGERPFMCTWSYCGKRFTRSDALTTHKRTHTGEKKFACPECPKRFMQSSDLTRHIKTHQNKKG
Method in brief: as §1

[22] = target: T17, ZFP SBS#1325 (synthetic)
T17 chain: T1 chain with Q20T, N25V, Q26R, R50T, D52G, E53S, Q55T, R83T, E84K
Method in brief: as §1

[23] = target: T18, ZFP SBS#1326 (synthetic)
T18 chain: T3 chain with D20T, R21S, S22G, T25V, D53A, D78R, S80D, N81A, R84K
Method in brief: as §1

[24] = target: T19, ZFP SBS#1327 (synthetic)
T19 chain: T1 chain with Q20T, N25V, Q26R, R50T, D52G, E53S, Q55T, R83T, E84T
Method in brief: as §1

[25] = target: T20, ZFP SBS#1328 (synthetic)
T20 chain: T3 chain with D20T, R21S, S22G, T25V, D53A, D78R, S80D, N81A, R84T
Method in brief: as §1

[26] = target: ZFP SBS#1323 (synthetic)
Method in brief: as §1

[27] = target: ZFP SBS#1324 (synthetic)
ZFP SBS#1324 (synthetic), sequence (chain, as listed by the source): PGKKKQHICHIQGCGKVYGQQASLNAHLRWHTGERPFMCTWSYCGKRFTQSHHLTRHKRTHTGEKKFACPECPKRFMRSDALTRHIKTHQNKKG
Method in brief: as §1

[28] = target: ZFP SBS#1322 (synthetic)
ZFP SBS#1322 (synthetic), sequence (chain, as listed by the source): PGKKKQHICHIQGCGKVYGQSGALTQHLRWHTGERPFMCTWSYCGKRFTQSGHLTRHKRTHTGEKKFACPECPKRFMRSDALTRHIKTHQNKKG
Method in brief: as §1

[29] = target: ZFP SBS#1352 (synthetic)
ZFP SBS#1352 (synthetic), sequence (chain, as listed by the source): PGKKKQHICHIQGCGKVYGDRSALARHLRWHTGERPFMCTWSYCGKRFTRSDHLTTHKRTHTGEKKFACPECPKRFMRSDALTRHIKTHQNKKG
Method in brief: as §1

[30] = target: T21, ZFP SBS#1347 (synthetic)
T21 chain: T4 chain with R25T, E26S, D53H, K56T, H81N, S83T, R84E
Method in brief: as §1

[31] = target: ZFP SBS#1350 (synthetic)
ZFP SBS#1350 (synthetic), sequence (chain, as listed by the source): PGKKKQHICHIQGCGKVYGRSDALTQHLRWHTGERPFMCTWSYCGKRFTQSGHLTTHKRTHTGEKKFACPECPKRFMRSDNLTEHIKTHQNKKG
Method in brief: as §1

[32] = target: T22, ZFP SBS#1339 (synthetic)
T22 chain: T4 chain with A23E, R25T, E26R, Q50R, H52D, D53S, K56Q
Method in brief: as §1

[33] = target: T23, ZFP SBS#1341 (synthetic)
T23 chain: T4 chain with A23E, R25T, E26R, Q50R, H52D, D53S, K56Q, D80H
Method in brief: as §1

[34] = target: T24, ZFP SBS#1340 (synthetic)
T24 chain: T4 chain with A23E, R25T, E26R, Q50R, H52D, D53A, K56Q, D80H
Method in brief: as §1

[35] = target: T25, ZFP SBS#1338 (synthetic)
T25 chain: T4 chain with A23E, R25T, E26R, Q50R, H52D, D53A, K56Q
Method in brief: as §1

B1: CTGGCGAGA (dsDNA)
DNA 1: CTGGCGAGA
DNA 2: TCTCGCCAG
Kd [1]: 56.5 nM | Kd [2]: 20.9 nM

B2: GACGCTGGC (dsDNA)
DNA 1: GACGCTGGC
DNA 2: GCCAGCGTC
Kd [3]: 1.4 nM

B3: GGGTCACTG (dsDNA)
DNA 1: GGGTCACTG
DNA 2: CAGTGACCC
Kd [4]: 0.234 nM | Kd [5]: 2.58 nM

B4: ATGGTGTGT (dsDNA)
DNA 1: ATGGTGTGT
DNA 2: ACACACCAT
Kd [6]: 0.048 nM | Kd [7]: 0.228 nM

B5: CCGGGCGAC (dsDNA)
DNA 1: CCGGGCGAC
DNA 2: GTCGCCCGG
Kd [8]: 2.28 nM

B6: GACTTGGTA (dsDNA)
DNA 1: GACTTGGTA
DNA 2: TACCAAGTC
Kd [9]: 0.032 nM | Kd [10]: 0.05 nM

B7: TTGGGAGAG (dsDNA)
DNA 1: TTGGGAGAG
DNA 2: CTCTCCCAA
Kd [11]: 0.127 nM | Kd [12]: 0.044 nM

B8: CCGGCGCTG (dsDNA)
DNA 1: CCGGCGCTG
DNA 2: CAGCGCCGG
Kd [13]: 0.31 nM

B9: CGGGCTGGA (dsDNA)
DNA 1: CGGGCTGGA
DNA 2: TCCAGCCCG
Kd [14]: 0.235 nM | Kd [15]: 1.4 nM

B10: CAGGCGCAG (dsDNA)
DNA 1: CAGGCGCAG
DNA 2: CTGCGCCTG
Kd [16]: 0.68 nM | Kd [17]: 37 nM

B11: GAGGTGTGA (dsDNA)
DNA 1: GAGGTGTGA
DNA 2: TCACACCTC
Kd [18]: 0.175 nM

B12: GATGTGTGA (dsDNA)
DNA 1: GATGTGTGA
DNA 2: TCACACATC
Kd [19]: 0.153 nM

B13: GCTTTGGCA (dsDNA)
DNA 1: GCTTTGGCA
DNA 2: TGCCAAAGC
Kd [20]: 0.034 nM | Kd [21]: 0.172 nM

B14: TTGGTTGGT (dsDNA)
DNA 1: TTGGTTGGT
DNA 2: ACCAACCAA
Kd [22]: 0.306 nM | Kd [23]: 4.38 nM | Kd [24]: 0.566 nM | Kd [25]: 7.95 nM

B15: GTGGGAATA (dsDNA)
DNA 1: GTGGGAATA
DNA 2: TATTCCCAC
Kd [26]: 0.744 nM | Kd [27]: 18.5 nM | Kd [28]: 0.799 nM

B16: GTGTGGGTC (dsDNA)
DNA 1: GTGTGGGTC
DNA 2: GACCCACAC
Kd [29]: 0.023 nM

B17: CAGTGAATG (dsDNA)
DNA 1: CAGTGAATG
DNA 2: CATTCACTG
Kd [30]: 8.23 nM | Kd [31]: 74.1 nM

B18: GGGATGGCG (dsDNA)
DNA 1: GGGATGGCG
DNA 2: CGCCATCCC
Kd [32]: 0.569 nM | Kd [33]: 4.1 nM | Kd [34]: 0.751 nM | Kd [35]: 1.04 nM
